The record followed here is the supplement of paper PMC9170038.

The data set concerns MS2 coat protein. The experiment in a line: apparent KD of MS2 coat protein; designed switch direction (-1 OFF switch, 1 ON switch): -1; higher = weaker reporter binding. The essentials: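 The reported apparent KD is a per-design median over clusters, from curve fits of normalised cluster fluorescence. Protein titrations used SNAP-549-labelled MS2 coat protein, doubled from 0.7 or 1.5 nM to 3 µM, in Tris-HCl pH 7.5 buffer with KCl, MgCl2, BSA, DTT, tRNA and Tween-20, with no input, 200 uM small-molecule ligand, or an oligonucleotide input. The RNA switches were transcribed on Illumina chips by stalled E. coli RNA polymerase.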

[1] abbreviates: input ligand: microRNA oligo, concentration not stated.
The mark [2] stands for this setting: Eterna round: R95, input ligand: microRNA oligo, concentration not stated.
Setting [3] is: Eterna round: R95, input ligand: FMN 200 uM.
[4] abbreviates: Eterna round: R95, input ligand: none.

As to “GGUGCCCGACAAGGAUAUAAGAUACAGAAAACCUUAGAAGGUGUCACAUGAGGAUCACCCAUGUGGUCCGGCACCAAUAACUCC [Inedraor] (Eterna round: R96, puzzle: Exclusion NG 1)”, the “apparent KD of MS2 coat protein” value by setting is: (input ligand: FMN 200 uM) 58.9 nM; under setting [1], 18.1 nM; (input ligand: none) 41.9 nM.
With “GGUGCGUAUGUGAGGAUAUGCUGGUCCUUGGAUCAGCAGAAGGCACAUGAGGAUCACCCAUGUGGUGUCGUACC [JL bmx4 3.46] (puzzle: Brourd's mod of Exclusion 4)”, the “apparent KD of MS2 coat protein” value under setting [2] came to 149 nM.
On the same count and under the same terms, the figure for “GGUGCGUAUGUGAGGAUAUGCUGGUCCUUGGAUCGGCAGAAGGCACAUGAGGAUCACCCAUGUGGUGUCGUACG [salish99_Bmod_ex4_078] (puzzle: Brourd's mod of Exclusion 4)” is 51.8 nM; for “GGUGCGUAUGUGAGGAUAUGCUGGUCCUUGGCUCGGCAGAAGGCACAUGAGGAUCACCCAUGUGGUGUCGUACC [salish99_Bmod_ex4_054] (puzzle: Brourd's mod of Exclusion 4)” it is 141 nM.
On to “GGUGCGUAUGUGAGGAUAUGCUGGUCCUUGGGUCAGCAGAAGGCACAUGAGGAUCACCCAUGUGGUGUCGUACC [salish99_Bmod_Ex4_026] (puzzle: Brourd's mod of Exclusion 4)”, for which the “apparent KD of MS2 coat protein” value was determined as 20.3 nM under setting [3], 345 nM under setting [2] and 344 nM under setting [4].
As to “GGUGCGUUUGUGAGGAUAUGCUGGUCCUUGGUUCAGCAGAAGGCACAUGAGGAUCACCCAUGUGGUGUCGUACC [salish99_Bmod_Ex4_031] (puzzle: Brourd's mod of Exclusion 4)”, the “apparent KD of MS2 coat protein” value under setting [2] came to 145 nM.
“GGUGCUGGCGCGUCGGUGUUGGUGCAAUAAGCUUGUGAAACAUGAGGAUCACCCAUGUCCUCGUGGGCUCGUCUUGU [salish99_TOv2_r2_090] (puzzle: Sensor v3, turn-off variant 2)”: the “apparent KD of MS2 coat protein” value is 480 nM under setting [3], 12.5 nM under setting [2] and 434 nM under setting [4].
With “GGUGGACAUGAGGAUCACCCAUGUGAGGAUAUCGGCUGGCUAGCGGCGGACGGCUUCUCGAGAAGGCGCAUUGU [Exclusion 1 V83] (Eterna round: R96, puzzle: Exclusion 1)”, the “apparent KD of MS2 coat protein” value stood at 68.8 nM (input ligand: FMN 200 uM), 42.2 nM under setting [1] and 64.5 nM (input ligand: none).
Regarding “GGUGGACAUGAGGAUCACCCAUGUGAGGAUAUCGGCUGGCUAGCGGCGGACGGCUUCUCGAGAAGGCGCAUUGU [Exclusion 1 V83] (puzzle: Exclusion 1)”, the “apparent KD of MS2 coat protein” value under setting [2] was 46.3 nM.
Same read-out and setting: the figure for “GGUGGACAUGAGGAUCACCCAUGUGAGGAUAUCGGCUGGUACGUGUUGGCUGGCUUCUCGAGAAGGCACAUAGU [Exclusion 1 V65] (puzzle: Exclusion 1)” is 45.9 nM.
On to “GGUGGCUACGUGAGACAUGAGGAUCACCCAUGUUACCGAACGAAGGAUAUAGAAGCACAUAGCUACUAGAAGGUUGAAAAGAAA [Laeratveti] (Eterna round: R96, puzzle: Exclusion NG 3)”, for which the “apparent KD of MS2 coat protein” value runs as follows: (input ligand: FMN 200 uM) 22.6 nM; under setting [1], 24.1 nM; (input ligand: none) 29.9 nM.
In the case of “GGUUCGAGUGUGAGGAUAUGCUGGUCCUUGGAUCAGCAGAAGGCACAUGAGGAUCACCCAUGUGGUAACGGACC [Mat - Exclusion 4 - Eli Mod - D35] (Eterna round: R97, puzzle: Brourd's mod of Exclusion 4)”, the “apparent KD of MS2 coat protein” value (input ligand: FMN 200 uM) was determined as 263 nM and the “apparent KD of MS2 coat protein” value (input ligand: none) was 331 nM.
Regarding “GGUUGGCGAGGAUAUACAUGAGGAUCACCCAUGUGAGAAUUAAAAGUGAGGAAGAAAAGUAGAAGGCGCUGACG [Mat - Exclusion 3 - Mod of Salish D4] (puzzle: Exclusion 3)”, the “apparent KD of MS2 coat protein” value runs as follows: under setting [3], 304 nM; under setting [2], 36.1 nM; under setting [4], 384 nM.
Regarding “GGUUGGCGAGGAUAUACAUGAGGAUCACCCAUGUGAGAGAAUAAAGUGAGAAAGAAAAGUAGAAGGCGCUGACA [Mat - Exclusion 3 - Mod of Salish D51] (puzzle: Exclusion 3)”, the “apparent KD of MS2 coat protein” value runs as follows: under setting [3], 900 nM; under setting [2], 46.9 nM; under setting [4], 63.9 nM.
For “GGUUGUUGUUUCCGUUCUUACAUGAGGAUCACCCAUGUUUCUUGUCGUGCUCGCGUUGCUCGUCUGGCUGUCUGUUG [salish99_TOv1_r3_071] (puzzle: Sensor v3, turn-off variant 1)”, in that order: 52.3 nM, 40.2 nM and 67.7 nM.
“GGUUUGGGAGGAUAUGGUUUGAAUAACAUGAGGAUCACCCAUGUAAAUAGAUCUUCCGGGCCAGAAGGCUCGGGCC [-23.9, -21.52 kcal, A 26%] (Eterna round: R97, puzzle: Exclusion 5)”: the “apparent KD of MS2 coat protein” value worked out at 29.5 nM (input ligand: FMN 200 uM) and 34.6 nM (input ligand: none).
For “GGUUUUUUUUUCCUUUCUUACAUGAGGAUCACCCAUGUUUCUUGUCGUGCUCGCGUUGCUCGUCUGUCUGUCUGUUG [salish99_TOv1_r3_075(!)] (puzzle: Sensor v3, turn-off variant 1)”, the “apparent KD of MS2 coat protein” value is 49.7 nM under setting [3], 41 nM under setting [2] and 56.2 nM under setting [4].
With “GUAAACCGGUGAGGAUAUUUAUAAUAGAGCUUUAUGAUAUACAUGAGGAUCACCCAUGUUACUUUAAAGAAGGCAUCGGAAAUG [Mat - Exclusion NG 2 - Mod of JL - D95] (Eterna round: R96, puzzle: Exclusion NG 2)”, under setting [1], the “apparent KD of MS2 coat protein” value was 15.5 nM.
Take “GUAAACGCAGAGGAUAUAUCAGAUCAAAGCUGCAUAGAAGGCUGCACAUGAGGAUCACCCAUGUGGUCUUCAAG [Mat - Exclusion 6 - JL Mod - D7] (Eterna round: R97, puzzle: Exclusion 6)”: the “apparent KD of MS2 coat protein” value turned out to be 230 nM (input ligand: FMN 200 uM) and 31.2 nM (input ligand: none).
For the sequence “GUAAAGGUAGGAUAUACGAAGAAAAAGGGUAGAAGAAAAACACAUGAGGAUCACCCAUGUAGAAGGACCAAAUG [Mat - Exclusion 2 - Mod of my Tesla design - D3] (puzzle: Exclusion 2)”, the “apparent KD of MS2 coat protein” value reads like this: under setting [3], 77.6 nM; under setting [2], 28.6 nM; under setting [4], 34 nM.
For “GUAAAGUGAGGAUAUGGUAAAUUAAUUAUUAAUUAAUUAAUCCAGAAGGCACAUGAGGAUCACCCAUGUUAAUG [Mat - Exclusion 4 - D89] (puzzle: Exclusion 4)”, in that order: 50.9 nM, 28.6 nM and 34.5 nM.
For “GUAACAACUAGAGGAUAUCAGCACGUGUAGUGCUGAGAAGGCUAGAGUUACAUGAGGAUCACCCAUGUCUAGAGAUCAUUAAUU [ENG1/13-A3] (Eterna round: R96, puzzle: Exclusion NG 1)”, the “apparent KD of MS2 coat protein” value (input ligand: FMN 200 uM) was determined as 142 nM, the “apparent KD of MS2 coat protein” value under setting [1] stood at 52.9 nM and the “apparent KD of MS2 coat protein” value (input ligand: none) was found to be 69.3 nM.
For “GUAAGUUCAGGAUAUGAUGAAUUAAACAUGAGGAUCACCCAUGUAGAUCCUGAAUUAACAUCAGAAGGGAAUAUUU [JL-ex5-4.53 Brourd mod] (Eterna round: R97, puzzle: Exclusion 5)”, the “apparent KD of MS2 coat protein” value by setting is: (input ligand: FMN 200 uM) 22.2 nM; (input ligand: none) 15.5 nM.
With “GUAAUACAUGAGGAUCACCCAUGUUAGGAUAUCUGCAGGACGUCUCCCGUAUAUCCGUAGAGAAGGGACAGUGG [Eternabot (L1) Solution 20] (Eterna round: R97, puzzle: Exclusion 1)”, the “apparent KD of MS2 coat protein” value (input ligand: FMN 200 uM) was 43 nM and the “apparent KD of MS2 coat protein” value (input ligand: none) amounted to 33.6 nM.
For “GUAAUGUCAGGAUAUACUAAUGAUGAAUGAUCAGACAUUAUGUAGAAGGGACAUGAGGAUCACCCAUGUAAUAU [EX4 #4] (Eterna round: R97, puzzle: Exclusion 4)”, the “apparent KD of MS2 coat protein” value worked out at 49.3 nM (input ligand: FMN 200 uM) and 28.4 nM (input ligand: none).
Consider “GUAAUUCGAGGAUAUGCCCAUCUAAACAUGAGGAUCACCCAUGUGCGCAUGUUUACCAUCGCAGAAGGCGAGCUGC [Eternabot (L1) Solution 31] (Eterna round: R97, puzzle: Exclusion 5)”, for which the “apparent KD of MS2 coat protein” value is, setting by setting: (input ligand: FMN 200 uM) 39.3 nM; (input ligand: none) 25.5 nM.
“GUACGCUCAGGAUAUCAAGGGCUGUACAUGAGGAUCACCCAUGUUAUCUUGGUGUCAGCGUGAGAAGGGAGGGAAA [Xesoonesa] (Eterna round: R96, puzzle: Exclusion 5)”: the “apparent KD of MS2 coat protein” value reads like this: (input ligand: FMN 200 uM) 27.2 nM; under setting [1], 20.2 nM; (input ligand: none) 28.6 nM.
On to “GUACGCUCAGGAUAUCAAGGGCUGUACAUGAGGAUCACCCAUGUUAUCUUGGUGUCAGCGUGAGAAGGGAGGGAAA [Xesoonesa] (puzzle: Exclusion 5)”, for which, under setting [2], the “apparent KD of MS2 coat protein” value was determined as 20.6 nM.
Turning to “GUACUGACAGGAUAUACAUGAGGAUCACCCAUGUGCCUUAAUGCUACAAAAGUAGCAAGUAGAAGGGUCUGUAC [Omei Ex3 Model Bachelor's Dilema v11] (Eterna round: R97, puzzle: Exclusion 3)”, the “apparent KD of MS2 coat protein” value runs as follows: (input ligand: FMN 200 uM) 79.7 nM; (input ligand: none) 16.5 nM.
On to “GUAGAGACAGGAUAUACAUGAGGAUCACCCAUGUAAGGAGGAAGAGAGAGGAGAAGGAGUAGAAGGGUCAGAGG [JR_Exclu3_Sub029] (puzzle: Exclusion 3)”, for which the “apparent KD of MS2 coat protein” value by setting is: under setting [3], 29.2 nM; under setting [2], 35.3 nM; under setting [4], 35.2 nM.
“GUAGAGUAAGGAUAUGUAGAAUAGGAUAGAAUGGUUAGAAUACAGAAGGUACAUGAGGAUCACCCAUGUAAUGU [Excluse me!!!! 3 - Jieux - Exclusion 4] (puzzle: Exclusion 4)”: under setting [2], the “apparent KD of MS2 coat protein” value stood at 17 nM.
